Test results reported in patent publication US20090142345A1.

Experiments:
[1] = target: human DDR1b protein (Discoidin Domain Receptor 1, isoform b) (human) (UniProt Q08345); experiment: cell-based or functional assay
[2] = target: DDR1bDN protein (dominant negative type DDR1b not having kinase activity) (human) (UniProt Q08345); experiment: cell-based or functional assay

non-immunized rabbit IgG (Jackson Immunoresearch Company) (antibody)
cell protection inhibitory activity at 33 µg/mL, relative to the change induced by type IV collagen as 100%, HCT116 cells (Caspase-Glo 3/7 Assay) [1]: 0%
cell protection inhibitory activity at 1 mg/mL, relative to the absorbance change induced by type IV collagen as 100%, DDR1FL-#117 cells [1]: 1.7%

type IV collagen (Sigma Company) (ligand)
suppression of serum-removal-induced apoptosis by addition of type IV collagen in DDR1FL-#117 cells (Cell Death Detection ELISA) [1]: 53%
suppression of serum-removal-induced apoptosis by addition of type IV collagen in DDR1bDN-#206 cells (Cell Death Detection ELISA) [2]: 34%
